The numbers were not newly measured in article PMC4030972, which cites them from elsewhere.

The target of this data set is cholera toxin A1 subunit CtxA1 (Vibrio cholerae) (UniProt P01555).
Sequence of UniProt P01555 (P01555 19-212): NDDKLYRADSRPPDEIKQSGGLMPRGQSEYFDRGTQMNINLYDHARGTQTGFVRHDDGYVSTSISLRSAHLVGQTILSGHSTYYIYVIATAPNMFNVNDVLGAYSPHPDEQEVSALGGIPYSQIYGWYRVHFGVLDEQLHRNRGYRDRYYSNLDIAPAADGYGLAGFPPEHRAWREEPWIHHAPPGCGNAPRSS

The term Kd denotes the constant that tells how readily two partners part at equilibrium. With Hsp90 (from UniProt P08238), the Kd is 7 nM.
